Test results reported in US20210363269A1 (ALX ONCOLOGY, published 2021).
Where a chain is given by its changes, count along the chain named.

B1: S136 (scFv, V domains shown)
VH: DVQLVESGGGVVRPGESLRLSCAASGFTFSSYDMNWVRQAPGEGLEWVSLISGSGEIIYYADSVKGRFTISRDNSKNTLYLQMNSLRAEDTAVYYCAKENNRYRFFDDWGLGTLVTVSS
VL: ETVLTQSPGTLTLSPGERATLTCRASQSVYTYLAWYQEKPGQAPRLLIYGASSRATGIPDRFSGSGSGTEFTLTISSLQSEDFAVYYCQQYYDRPPLTFGGGTKVEIK
notes: also called scFv-Fc form of AB136
B2: S189 (scFv, V domains shown)
VH: DVQLVESGGGVVRPGESLRLSCAASGFTFSSSDMNWVRQAPGEGLEWVSLISGSGEITYYADSVKGRFTISRDNSKNTLYLQMNSLRAEDTAIYYCAKENNMYRFFDYWGLGTLVTVSS
VL: B1 VL with T12S, T22S, E38Q, A43P, Y49H, G50A, S52R, S53N, T56A
B3: S190 (scFv, V domains shown)
VH: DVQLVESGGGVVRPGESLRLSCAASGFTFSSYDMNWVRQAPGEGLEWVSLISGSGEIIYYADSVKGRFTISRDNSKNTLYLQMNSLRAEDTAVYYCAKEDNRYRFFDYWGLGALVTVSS
VL: B1 VL with A19T
notes: also called clone 190
B4: S180 (scFv, V domains shown)
VH: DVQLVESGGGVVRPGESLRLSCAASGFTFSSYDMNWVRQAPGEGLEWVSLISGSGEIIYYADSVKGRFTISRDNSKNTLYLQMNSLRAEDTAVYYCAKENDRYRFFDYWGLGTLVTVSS
VL: B1 VL
notes: also called clone 180
B5: S193 (scFv, V domains shown)
VH: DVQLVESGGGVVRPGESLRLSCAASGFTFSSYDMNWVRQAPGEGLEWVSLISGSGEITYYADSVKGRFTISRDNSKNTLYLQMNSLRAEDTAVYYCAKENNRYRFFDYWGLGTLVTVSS
VL: B1 VL with T12S, T22S, G50A, S53T
notes: scFv-Fc format (VL-linker-VH on human IgG1 Fc)
B6: S177 (scFv, V domains shown)
VH: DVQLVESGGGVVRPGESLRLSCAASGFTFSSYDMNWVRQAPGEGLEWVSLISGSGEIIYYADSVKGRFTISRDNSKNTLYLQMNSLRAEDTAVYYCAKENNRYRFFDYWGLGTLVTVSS
VL: B1 VL with E1K, T12S, S26D, K39R, G50D
B7: S185 (scFv, V domains shown)
VH: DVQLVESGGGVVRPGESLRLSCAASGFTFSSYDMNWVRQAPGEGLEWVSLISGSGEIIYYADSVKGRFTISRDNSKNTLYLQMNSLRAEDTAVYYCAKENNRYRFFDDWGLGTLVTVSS
VL: B1 VL with T12S, T22N, T31S, K39R, S53T, Q79E, E81D
B8: S184 (scFv, V domains shown)
VH: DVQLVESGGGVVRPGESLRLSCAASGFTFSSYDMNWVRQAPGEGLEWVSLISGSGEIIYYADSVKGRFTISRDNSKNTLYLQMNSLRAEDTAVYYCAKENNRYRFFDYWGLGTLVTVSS
VL: B1 VL with T12S, T22N, G50D, Q79E
B9: S178 (scFv, V domains shown)
VH: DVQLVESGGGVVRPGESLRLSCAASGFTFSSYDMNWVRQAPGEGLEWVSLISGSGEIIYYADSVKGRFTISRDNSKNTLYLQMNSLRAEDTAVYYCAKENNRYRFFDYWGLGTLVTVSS
VL: B1 VL with T22S, I58V
B10: S175 (scFv, V domains shown)
VH: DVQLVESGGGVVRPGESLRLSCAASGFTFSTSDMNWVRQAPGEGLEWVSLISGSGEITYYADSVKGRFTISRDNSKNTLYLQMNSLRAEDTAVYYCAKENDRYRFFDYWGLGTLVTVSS
VL: B1 VL with T10I, T12S, T56A
B11: S16 (scFv, V domains shown)
VH: DVQLVESGGGVVRPGESLRLSCAVSGFRFSSYAMSWVRQAPGKGLEWVSGISSGGDTYYVDSVKGRFTISRDNSKNTLYLQVNSLTAEDTAIYYCARETWNHLFDYWGLGTLVTVSS
VL: ALTQPASVSANLGETVKITCSGGDSSSHYYGWYQQKSPGSAPVTVIYSDDERPSDIPSRFSGSASGSTATLTITGVRVEDEAIYYCGAYDGSTYANTFGAGTTLTVL
notes: also called clone 16
B12: S30 (scFv, V domains shown)
VH: B11 VH with A23E, V24A, R28T, Y32D, G55S, D56S, V60G, D61G, V82M, I92V
VL: ALTQPASVSASPGETVEITCSGGSDSSYYYGWYQQKSPGSAPVTVIYSDNKRPSNIPSRFSGSASGSTATLTITGVRVEDEAVYYCGGYDYSTYTNPFGAGTTLTVL
notes: also called clone 30
B13: S29 (scFv, V domains shown)
VH: B11 VH with G54D, G55S, T57A, I92V, L112M
VL: B11 VL with Y33F, V45L, Y85F, A95T
notes: also called clone 29
B14: S55 (scFv, V domains shown)
VH: B11 VH
VL: B11 VL with K17E
notes: also called clone 55
B15: S27 (scFv, V domains shown)
VH: B11 VH
VL: B11 VL with N11D
notes: also called clone 27; scFv-Fc form of AB27
B16: S74 (scFv, V domains shown)
VH: DVQLVESGGGVVRPGESLRLSCAASGFTFSSNAMSWVRQAPGKGLEWLAGISAGDSDTYYPASVKGRFTISRDNPKNTLYLQMNTLTAEDTAVYYCARETWNHLFDYWGLGTLVTVSS
VL: ALTQPASVSANPGETVKIACSGGSYYSYYYGWYQQKSPGSALVTVIYSDDKRPSGIPSRFSGSASGSTATLTITGVRAEDEAVYYCGGYDYSSYTNDFGAGTTLTVL
notes: also called clone 74
B17: S26 (scFv, V domains shown)
VH: DVQLVESGGGVVRPGESLRLSCAASGFTFSTYAMSWVRQAPGKGLEWVSGISASGSGTYYGDSVKGRFTMSRDNSKNTLYLQMNSLTAEDTAVYYCARETWNHLFDYWGLGTLVTVSS
VL: ALTQPASVSANLGGTVEITCSGGSSSYYGWYQQKSPGSAPVTVIYSDNQRPSDIPSRFSGSASDSTATLTITGVQVEDEAIYYCGGYDSSTYANTFGAGTTLTVL
notes: also called clone 26

Assays:
Experiment in all cases: SPR, Langmuir fit
[1] = target: T1, human SIRP-α v2 D1 domain (human)
T1 construct: also called human v2
Summary of the method: (§1)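 Pre-filtered culture media supplied the scFv-Fc antibody clones, which were captured by anti-human IgG Fc amine-coupled (about 4000 RU) to a GLC chip on a ProteOn XPR36. SIRP analytes were flowed in PBS pH 7.4 with 0.01% Tween-20 at 25° C. Interspot and buffer-blank responses were subtracted from the data, which were then fitted to a 1:1 Langmuir model. Dissociation rate constants (koff) were derived from this fitting.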

[2] = target: T2, NOD mouse SIRP-α D1 domain (mouse (NOD strain))
T2 chain: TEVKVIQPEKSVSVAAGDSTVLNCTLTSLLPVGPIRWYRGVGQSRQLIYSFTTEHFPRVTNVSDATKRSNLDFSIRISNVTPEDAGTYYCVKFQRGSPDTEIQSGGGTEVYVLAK
Summary of the method: as §1

[3] = target: T3, cynomolgus SIRP-α D1 domain (cyno2) (cynomolgus monkey, UniProt Q5TFQ8 30-148 (human entry), limits assumed)
T3 chain: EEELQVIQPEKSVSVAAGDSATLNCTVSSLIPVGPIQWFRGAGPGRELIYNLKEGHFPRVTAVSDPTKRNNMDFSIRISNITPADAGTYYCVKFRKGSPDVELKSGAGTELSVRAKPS
Summary of the method: as §1

[4] = target: T4, human SIRP-α v1 D1 domain (human, UniProt P78324 31-149)
T4 construct: also called human v1
Summary of the method: as §1

[5] = target: T5, C57BL/6 mouse SIRP-α D1 domain (mouse (C57BL/6 strain), UniProt P97797 32-148)
T5 sequence: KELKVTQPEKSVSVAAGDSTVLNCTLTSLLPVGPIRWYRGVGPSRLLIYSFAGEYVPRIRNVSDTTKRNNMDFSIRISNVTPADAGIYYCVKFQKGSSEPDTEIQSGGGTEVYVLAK
Summary of the method: as §1

human SIRPβ isoform 1 = target: T6, human SIRPβ isoform 1 (human, UniProt O00241 30-148)
T6 construct: also called SIRPb; sirpb1
Summary of the method: as §1

[6] = target: T7, mouse 129 SIRP-α D1 domain (mouse (129 strain), UniProt P97797 32-150)
T7 construct: also called m129
T7 chain: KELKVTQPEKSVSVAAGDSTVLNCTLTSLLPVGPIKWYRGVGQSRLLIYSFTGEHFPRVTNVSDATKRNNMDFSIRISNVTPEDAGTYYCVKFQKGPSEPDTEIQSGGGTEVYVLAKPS
Summary of the method: as §1

[7] = target: T8, high affinity SIRP-α D1 variant CV1-3
T8 chain: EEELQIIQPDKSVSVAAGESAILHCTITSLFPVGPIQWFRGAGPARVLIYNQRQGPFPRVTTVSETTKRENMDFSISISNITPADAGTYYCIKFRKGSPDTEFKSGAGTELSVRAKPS
Summary of the method: as §1

[8] = target: T9, cynomolgus SIRP-α D1 domain (cyno1) (cynomolgus monkey, UniProt Q5TFQ8 30-148 (human entry), limits assumed)
T9 chain: T3 chain with D19E, V27A, S28T, A42V, N51H, L52Q, A62P
Summary of the method: as §1

human SIRPγ isoform 1 = target: T10, human SIRPγ isoform 1 (human, UniProt Q9P1W8 29-147)
T10 construct: also called SIRPg; sirpg
Summary of the method: as §1

T10 sequence (Q9P1W8 29-147 limits assumed): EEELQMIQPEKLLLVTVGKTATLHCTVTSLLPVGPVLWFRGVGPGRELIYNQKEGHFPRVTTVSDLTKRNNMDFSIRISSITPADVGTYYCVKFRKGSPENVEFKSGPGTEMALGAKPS
T4 sequence (P78324 31-149 limits assumed): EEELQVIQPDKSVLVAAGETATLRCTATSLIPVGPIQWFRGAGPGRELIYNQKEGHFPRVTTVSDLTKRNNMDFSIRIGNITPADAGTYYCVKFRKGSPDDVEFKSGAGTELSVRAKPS
T6 sequence (O00241 30-148 limits assumed): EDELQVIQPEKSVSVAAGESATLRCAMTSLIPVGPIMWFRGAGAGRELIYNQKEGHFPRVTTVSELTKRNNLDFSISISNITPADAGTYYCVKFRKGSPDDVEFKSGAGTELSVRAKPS

| Binder | koff [1] [s⁻¹] | koff [2] [s⁻¹] | koff [3] [s⁻¹] | koff [4] [s⁻¹] | koff [5] [s⁻¹] | koff (human SIRPβ isoform 1) [s⁻¹] | koff [6] [s⁻¹] | koff [7] [s⁻¹] | koff [8] [s⁻¹] | koff (human SIRPγ isoform 1) [s⁻¹] |
| --- | --- | --- | --- | --- | --- | --- | --- | --- | --- | --- |
| B1 | 0.00161 | 0.000386 | 0.00132 | 0.000845 | 0.00478 | 0.0036 | 0.000459 | 0.00159 | – | – |
| B2 | 0.00281 | 0.000504 | 0.00187 | 0.00106 | 0.0039 | 0.00278 | 0.000837 | 0.00228 | 0.00331 | – |
| B3 | 0.00199 | 0.000563 | 0.00124 | 0.00156 | – | 0.00256 | 0.000773 | 0.00308 | 0.00217 | – |
| B4 | 0.00227 | 0.000576 | 0.00138 | 0.0016 | 0.00466 | 0.00375 | 0.000806 | 0.00307 | 0.0025 | – |
| B5 | – | 0.00157 | 0.00428 | – | 0.00389 | – | 0.00209 | – | – | – |
| B6 | – | 0.000736 | 0.00269 | – | – | – | 0.00104 | – | 0.00447 | – |
| B7 | 0.00205 | 0.000573 | 0.00103 | 0.00122 | 0.00514 | 0.00385 | 0.000717 | 0.00239 | 0.00178 | – |
| B8 | – | 0.000638 | 0.00221 | – | 0.00422 | – | 0.000821 | 0.00514 | 0.0039 | – |
| B9 | 0.00317 | 0.000762 | 0.00177 | 0.00223 | – | 0.00473 | 0.00112 | 0.00426 | 0.00344 | – |
| B10 | 0.00183 | 0.000417 | 0.00107 | 0.000839 | 0.0032 | 0.00299 | 0.000605 | 0.00165 | 0.00177 | – |
| B11 | 0.000111 | 0.00128 | 0.000138 | 6.22e-05 | 0.00235 | 0.000113 | 0.000176 | 0.0001 | 0.000132 | 8.17e-05 |
| B12 | 0.000188 | – | 0.000366 | 0.000132 | 0.00244 | 0.000237 | 0.000476 | 0.000142 | 0.000335 | 0.000193 |
| B13 | 0.000178 | – | 0.000369 | 9.61e-05 | 0.00186 | 0.000279 | 0.00114 | 0.000343 | 0.000387 | 0.000216 |
| B14 | 7.16e-05 | 0.00119 | 0.000116 | 4.18e-05 | 0.00197 | 6.48e-05 | 0.000143 | 6e-05 | 9.63e-05 | 4.69e-05 |
| B15 | 9.97e-05 | 0.0013 | 0.000161 | 5.81e-05 | 0.00184 | 8.97e-05 | 0.000136 | 8.94e-05 | 0.000138 | 9.46e-05 |
| B16 | 0.000278 | – | 0.00032 | 0.000161 | 0.00137 | 0.000266 | 0.000412 | 0.000166 | 0.000337 | 0.000225 |
| B17 | 0.000111 | 0.000764 | 0.000743 | 5.81e-05 | – | 0.000129 | 0.00108 | 4.74e-05 | 0.000967 | 8.35e-05 |
